Columns and labels:
SK-HEP-1 cells = assay: Scatter assay; type: cell-based; conditions: SK-HEP-1, antibody 10 μg/ml; for inhibitory effect on cell scattering in presence of HGF: HGF 100 ng/ml; for agonist effect on cell scattering, alone: no HGF
Protocol: SK-HEP-1 cells were seeded at low density (1·10^4 cells/well) in a 24-well plate in DMEM with 10% FCS and grown for 24 hours before addition, at the same time, of HGF (100 ng/ml) and antibodies to be tested (10 μg/ml). After 72 hours incubation, colonies were fixed and stained with 0.2% crystal violet in methanol and assessed for scattering visually. Each tested condition was tested as a triplicate and 3 independent experiments were performed.

BxPC3 cells = assay: In vitro inhibition of BxPC3 proliferation ([3H]thymidine incorporation); type: cell-based; conditions: BxPC3, in absence of ligand, antibody alone
Protocol: For that purpose 50 000 BxPC3 cells were plated in 96 well plates in RPMI medium, 2 mM L. Glutamine, without SVF. […] After 3 days, cells were pulsed with 0.5 μCi of [^3H]thymidine for 16 hours. The magnitude of [^3H]thymidine incorporated into trichloroacetic acid-insoluble DNA was quantified by liquid scintillation counting. Results were expressed as raw data to really evaluate the intrinsic agonistic effect of each Mab (FIGS. 2A and 2B).

[1] = biological target: T1, recombinant c-Met-Extra-Cellular Domain (ECD) fused to an human IgG Fc domain (Homo sapiens, UniProt P08581); assay: Determination of affinity constants (KD) by Biacore analysis; type: binding; conditions: text summary of table 4; read-out: affinity for recombinant c-Met-Fc fusion protein
T1 construct: recombinant c-Met-Extra-Cellular Domain (ECD) fused to an human IgG Fc domain (R&D Systems) as antigen; purchased R&D Systems
T1 sequence (P08581 25-932 limits assumed): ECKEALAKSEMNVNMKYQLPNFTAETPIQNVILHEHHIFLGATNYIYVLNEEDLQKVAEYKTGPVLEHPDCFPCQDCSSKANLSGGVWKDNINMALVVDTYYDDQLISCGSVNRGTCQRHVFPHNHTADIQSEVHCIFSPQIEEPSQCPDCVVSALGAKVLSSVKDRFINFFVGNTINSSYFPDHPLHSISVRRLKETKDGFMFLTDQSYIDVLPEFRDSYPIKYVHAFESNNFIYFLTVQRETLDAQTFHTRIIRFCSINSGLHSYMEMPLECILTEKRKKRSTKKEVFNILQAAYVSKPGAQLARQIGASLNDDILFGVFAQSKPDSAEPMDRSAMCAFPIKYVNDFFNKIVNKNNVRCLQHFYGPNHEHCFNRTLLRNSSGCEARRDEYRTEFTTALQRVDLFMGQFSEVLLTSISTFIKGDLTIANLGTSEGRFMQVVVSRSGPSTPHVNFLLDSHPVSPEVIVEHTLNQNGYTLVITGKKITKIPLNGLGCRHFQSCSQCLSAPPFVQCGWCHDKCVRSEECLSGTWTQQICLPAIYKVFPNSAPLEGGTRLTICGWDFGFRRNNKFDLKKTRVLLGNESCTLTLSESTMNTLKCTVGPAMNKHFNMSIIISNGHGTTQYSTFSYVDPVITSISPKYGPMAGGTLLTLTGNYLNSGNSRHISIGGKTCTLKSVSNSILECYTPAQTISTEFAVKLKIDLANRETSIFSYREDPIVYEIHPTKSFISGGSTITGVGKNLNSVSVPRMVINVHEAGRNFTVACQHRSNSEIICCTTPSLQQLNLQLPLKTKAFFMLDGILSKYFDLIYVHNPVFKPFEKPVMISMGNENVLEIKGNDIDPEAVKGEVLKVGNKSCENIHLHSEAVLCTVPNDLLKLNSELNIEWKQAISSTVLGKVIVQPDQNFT
From the text: The binding affinity of purified 11E1 and 224G11 antibodies was investigated by BIAcore X using recombinant c-Met-Extra-Cellular Domain (ECD) fused to an human IgG Fc domain (R&D Systems) as antigen (MW=129 kDa). As both c-Met-Fc fusion proteins and antibodies are bivalent compounds, Fab fragments of mAbs 11E1 and 224G11 (MW=50 kDa) were generated by papain cleavage, purified and used in this assay to avoid interference with avidity parameter. For the assay, an anti-Tag histidine capture antibody was coated on CM5 sensorchips. The running buffer was HBS-EP, the flow rate was 30 μl/min and the test was performed at 25° C. Soluble c-Met (ECD_M1)2-Fc-(HHHHHH)2 antigen was captured on the sensorchip (around 270 RU), and the antibodies to be tested were used in solution as analytes. The sensorship was regenerated using Glycine, HCl pH 1.5 buffer on both flowcells for half a minute.

NCI-H441 = NCI-H441 xenograft model (Example 11)
From the text: The evaluation of anti-c-met antibodies on the in vivo activity of this non autocrine cell line could give some insights about their potency to impact on c-met dimerization.

HGF-cMet = biological target: T2, HGF-cMet (Homo sapiens, UniProt P08581); assay: HGF-cMet competition assay (ELISA); type: binding; conditions: purified murine antibodies
T2 construct: recombinant c-Met-Extra-Cellular Domain (ECD) fused to an human IgG Fc domain
T2 sequence (P08581 25-932 limits assumed): as above
From the text: FIG. 54: HGF-cMet competition assay. In this ELISA-based assay, recombinant Fc-cMET residual binding to plastic coated HGF in the presence of purified murine monoclonal antibodies 11E1, 224G11 and 227H1 was detected with […] and measured at 450 nm;
FIG. 58: HGF-cMet competition assay of 227H1 murine and recombinant antibodies. In this ELISA-based assay, recombinant Fc-cMet residual binding to plastic coated HGF in the presence of the different forms of the 227H1 antibody was detected with a biotinylated unrelated anti-cMet antibody. Purified murine 227H1 monoclonal antibody, chimeric and HZ4VH-derived humanized 227H1-derived recombinant antibodies were tested and compared for their abilities to compete with HGF-cMet binding when measured at 450 nm;
Humanization of the anti-cMet antibodies were performed independently for each chain and sequentially, regarding to the analysed amino acids in each variable domain. The humanization process was evaluated in a first attempt in an ELISA-based binding assay to recombinant Fc-cMet; binding activities the humanized antibodies being compared to the recombinant chimeric antibody. In a second attempt, anti-cMet humanized antibodies were evaluated for their abilities to displace the Fc-cMet binding onto plastic-coated recombinant HGF; this competition assay allowing the direct comparison of murine, chimeric and humanized versions of the anti-cMet antibodies.
These two assays were used to characterize the recombinant chimeric and humanized versions of the murine anti-cMet antibodies. To this end, briefly, anti-cMet variable domains, either murine or humanized, were cloned into LONZA's pCONplus expression vectors series and recombinant IgG1/κ-derived antibodies were expressed in CHO cells. […] Both direct binding and HGF-competition assays were assessed to better characterize recombinant chimeric or humanized versions.

A549 cells = assay: Matrigel invasion assay with A549 cells; type: cell-based; conditions: A549, Mab 10 μg/ml, basal (no HGF)
Protocol: To evaluate the inhibiting effect of the anti-c-Met antibodies on the invasion process, A549 cells were plated in the upper chamber of BD BioCoat™ Matrigel™ invasion chambers (6.5 mm diameter wells with 8-μm pre size polycarbonate membranes). A459 cells were starved 24 hours before performing the invasion assay. Then 500 000 A549 cells were plated in chemotaxis buffer (DMEM medium, 0.1% BSA, 12 mM Hepes) in the upper well of each chamber, upon the Matrigel coating either with or without the antibody to be tested (final Mab concentration 10 μg/ml). After 1 hour incubation of the plates at 37° C. with 5% CO2, the lower chambers were filled with either growth medium containing 400 ng/ml of rhHGF or with growth medium alone. The chambers were incubated for 48 additional hours at 37° C. with 5% CO2. At the end of this incubation time, cells that remained on upper surface of the filter were gently removed with a cotton swab, cells that migrated to the lower surface of the filter were lysed, stained with CyQuant GR dye buffer (Invitrogen) and counted using a fluorescence reader Berthold Mithras LB940. All conditions were tested as triplicates.

HUVEC = HUVEC tube formation; type: cell-based; conditions: HGF 50 ng/ml
Protocol: For evaluation of HUVEC tube formation, 25000 cells incubated 30 min with antibodies to be tested were plated in 48-well plates coated with matrigel. Then HGF 50 ng/ml was added and plates were incubated at 37° C. Medium was then harvested and […] CMFDA was added for 15 min before microscopic observation.

B1: 11E1: murine anti-c-Met monoclonal antibody, IgG1 kappa; heavy chain SEQ ID No. 62, light chain SEQ ID No. 63 (antibody, V domains shown)
VH: QVQLQQSGAELAKPGASVKMSCKASGYTFTSYWMNWVKQRPGQGLEWIGYINPTTGSTDYNQKLKDKATLTADKSSNTAYMQLSSLTSEDSAVYYCAIGGYGSWFAYWGQGTLVTVSA
VL: QIVLTQSPAIMSASPGEKVTLTCSASSSVSSTYLYWYQQKPGSSPKLWIYTTSILASGVPARFSGSGSGTSYSLTISSMETEDAASYFCHQWSSYPFTFGSGTKLDIK
modifications: mus musculus
With B1 the “inhibitory effect on cell scattering in presence of HGF” value (SK-HEP-1 cells) was “very significant inhibitory effect”, the “agonist effect on cell scattering, alone” value (SK-HEP-1 cells) was “No agonistic effect” and the “agonist activity on cell proliferation” value (BxPC3 cells) was “without any agonist activity”. For the same molecule, the Kd [1] was about 0.04 nM, the “inhibition of in vivo growth of NCI-H441” value (NCI-H441) was “inhibited significantly” and the “HGF-cMet binding competition activity” value (HGF-cMet) was “moderate, not full but reliable competitive activity”. For the same molecule, the “agonist effect on invasion, added alone” value (A549 cells) was “No agonist effect” and the “effect on HGF-induced tube formation” value (HUVEC) was “inhibit dramatically”.

B2: 224G11: murine anti-c-Met monoclonal antibody, IgG1 kappa; heavy chain SEQ ID No. 18, light chain SEQ ID No. 21 (antibody, V domains shown)
VH: EVQLQQSGPELVKPGASVKISCKTSGYIFTAYTMHWVRQSLGESLDWIGGIKPNNGLANYNQKFKGKATLTVDKSSSTAYMDLRSLTSEDSAVYYCARSEITTEFDYWGQGTALTVSS
VL: DIVLTQSPASLAVSLGQRATISCRASESVDSYANSFMHWYQQKPGQPPKLLIYRASNLESGIPARFSGSGSRTDFTLTINPVEADDVATYYCQQSKEDPLTFGSGTKLEMK
modifications: mus musculus
With B2 the “inhibitory effect on cell scattering in presence of HGF” value (SK-HEP-1 cells) was “very significant inhibitory effect”, the “agonist effect on cell scattering, alone” value (SK-HEP-1 cells) was “No agonistic effect” and the “agonist activity on cell proliferation” value (BxPC3 cells) was “without any agonist activity”. For the same molecule, the Kd [1] was about 0.04 nM, the “inhibition of in vivo growth of NCI-H441” value (NCI-H441) was “inhibited significantly” and the “maximum of HGF binding displacement” value (HGF-cMet; at high antibody concentration) was 100%. The “agonist effect on invasion, added alone” value (A549 cells) was “No agonist effect” and the “effect on HGF-induced tube formation” value (HUVEC) was “inhibit dramatically”.

B3: 223C4: murine anti-c-Met monoclonal antibody, IgG1 kappa; heavy chain SEQ ID No. 20, light chain SEQ ID No. 23 (antibody, V domains shown)
VH: EVLLQQSGPELVKPGASVKIPCKASGYTFTDYNMDWVKQSHGMSLEWIGDINPNNGGTIFNQKFKGKATLTVDKSSSTAYMELRSLTSEDTAVYYCARGRYVGYYYAMDYWGQGTSVTVSS
VL: DIQMTQSPASLSVSVGETVTITCRASENIYSNLAWYQQKQGKSPQLLVYAATNLVDGVPSRFSGSGSGTQYSLKINSLQSEDFGSYYCQHFWGPPYTFGGGTKLEIK
modifications: mus musculus
For B3, the “agonist activity on cell proliferation” value (BxPC3 cells) was “without any agonist activity” and the “agonist effect on invasion, added alone” value (A549 cells) was “No agonist effect”.
